{
  "source": "paper PMC4841471",
  "about": "(Nature, 2015)",
  "target": "the molecule itself",
  "assay": "crystal structure",
  "data": [
    {"protein": "Two-pore channel TPC1 from Arabidopsis thaliana (AtTPC1) (natural protein, UniProt Q94KI8 1-733, looked up) MEDPLIGRDSLGGGGTDRVRRSEAITHGTPFQKAAALVDLAEDGIGLPVEILDQSSFGESARYYFIFTRLDLIWSLNYFALLFLNFFEQPLWCEKNPKPSCKDRDYYYLGELPYLTNAESIIYEVITLAILLVHTFFPISYEGSRIFWTSRLNLVKVACVVILFVDVLVDFLYLSPLAFDFLPFRIAPYVRVIIFILSIRELRDTLVLLSGMLGTYLNILALWMLFLLFASWIAFVMFEDTQQGLTVFTSYGATLYQMFILFTTSNNPDVWIPAYKSSRWSSVFFVLYVLIGVYFVTNLILAVVYDSFKEQLAKQVSGMDQMKRRMLEKAFGLIDSDKNGEIDKNQCIKLFEQLTNYRTLPKISKEEFGLIFDELDDTRDFKINKDEFADLCQAIALRFQKEEVPSLFEHFPQIYHSALSQQLRAFVRSPNFGYAISFILIINFIAVVVETTLDIEESSAQKPWQVAEFVFGWIYVLEMALKIYTYGFENYWREGANRFDFLVTWVIVIGETATFITPDENTFFSNGEWIRYLLLARMLRLIRLLMNVQRYRAFIATFITLIPSLMPYLGTIFCVLCIYCSIGVQVFGGLVNAGNKKLFETELAEDDYLLFNFNDYPNGMVTLFNLLVMGNWQVWMESYKDLTGTWWSITYFVSFYVITILLLLNLVVAFVLEAFFTELDLEEEEKCQGQDSQEKRNRRRSAGSKSRSQRVDTLLHHMLGDELSKPECSTSDT", "values": [
      {"measurement": "stoichiometry N", "value": 2}
    ]}
  ]
}
